Data reported in paper PMC6739308 (Scientific Reports, 2019).

Molecular target: T1, GST-p53 fusion protein (UniProt P04637 1-393)
T1 construct: p53 fused to GST
Assay: pull-down; 10 μl GST beads bound with 2 μg of GST or GST-p53, purified Flag-tagged SMG7 proteins in solution; binding buffer BC100 with 1 μg/μl BSA, overnight at 4 °C, five washes, western blot
Settings: both partners purified

T1 sequence (P04637 whole entry, the tested form may be a part): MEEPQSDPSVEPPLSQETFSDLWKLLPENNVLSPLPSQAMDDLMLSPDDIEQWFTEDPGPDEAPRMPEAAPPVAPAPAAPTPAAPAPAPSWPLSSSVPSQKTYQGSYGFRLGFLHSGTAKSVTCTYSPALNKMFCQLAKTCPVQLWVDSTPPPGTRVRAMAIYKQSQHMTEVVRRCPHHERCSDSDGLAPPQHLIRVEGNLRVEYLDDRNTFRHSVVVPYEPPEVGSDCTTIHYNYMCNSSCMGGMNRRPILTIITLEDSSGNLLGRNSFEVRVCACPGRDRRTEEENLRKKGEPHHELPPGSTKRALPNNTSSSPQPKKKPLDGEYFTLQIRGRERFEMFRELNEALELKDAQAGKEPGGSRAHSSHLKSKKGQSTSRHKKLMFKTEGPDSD

binding result: binds
B1: purified FH-SMG7 C-terminal fragment 815–1091aa (domain or fragment, UniProt Q92540-2 815-1091, looked up)
chain: PSEVKVPEFYWDSSYSMADNRSVMAQQANIDRRGKRSPGVFRPEQDPVPRMPFEKSLLEKPSELMSHSSSFLSLTGFSLNQERYPNNSMFNEVYGKNLTSSSKAELSPSMAPQETSLYSLFEGTPWSPSLPASSDHSTPASQSPHSSNPSSLPSSPPTHNHNSVPFSNFGPIGTPDNRDRRTADRWKTDKPAMGGFGIDYLSATSSSESSWHQASTPSGTWTGHGPSMEDSSAVLMESLKSIWSSSMMHPGPSALEQLLMQQKQKQQRGQGTMNPPH
notes: numbers count on a form of 1091 residues; source: purified; not shown: Flag, N-terminal, kept; HA, N-terminal, kept
